{"source": "paper PMC6314547", "about": "(The Journal of Cell Biology, 2019)", "proteins": {"B1": {"name": "FAM92A1 BAR domain (1–219 aa) (domain or fragment, UniProt A1XBS5 1-219, looked up)", "chain": "MMRRTLENRNAQTKQLQTAVSNVEKHFGELCQIFAAYVRKTARLRDKADLLVNEINAYAATETPHLKLGLMNFADEFAKLQDYRQAEVERLEAKVVEPLKTYGTIVKMKRDDLKATLTARNREAKQLTQLERTRQRNPSDRHVISQAETELQRAAMDASRTSRHLEETINNFERQKMKDIKTIFSEFITIEMLFHGKALEVYTAAYQNIQNIDEDEDLE"}}, "biological_target": "the molecule itself", "experiment": "SEC-MALS"}
{"protein": "B1", "values": [{"measurement": "stoichiometry N", "value": 2}]}
